Measurements from US20090075904A1 (CAMPINA NEDERLAND HOLDING B V, published 2009).

biological target: T1, Dipeptidyl peptidase IV (DPP-IV) (UniProt P22411 38-766, limits assumed); assay: cell-based or functional assay
T1 sequence (P22411 38-766 limits assumed): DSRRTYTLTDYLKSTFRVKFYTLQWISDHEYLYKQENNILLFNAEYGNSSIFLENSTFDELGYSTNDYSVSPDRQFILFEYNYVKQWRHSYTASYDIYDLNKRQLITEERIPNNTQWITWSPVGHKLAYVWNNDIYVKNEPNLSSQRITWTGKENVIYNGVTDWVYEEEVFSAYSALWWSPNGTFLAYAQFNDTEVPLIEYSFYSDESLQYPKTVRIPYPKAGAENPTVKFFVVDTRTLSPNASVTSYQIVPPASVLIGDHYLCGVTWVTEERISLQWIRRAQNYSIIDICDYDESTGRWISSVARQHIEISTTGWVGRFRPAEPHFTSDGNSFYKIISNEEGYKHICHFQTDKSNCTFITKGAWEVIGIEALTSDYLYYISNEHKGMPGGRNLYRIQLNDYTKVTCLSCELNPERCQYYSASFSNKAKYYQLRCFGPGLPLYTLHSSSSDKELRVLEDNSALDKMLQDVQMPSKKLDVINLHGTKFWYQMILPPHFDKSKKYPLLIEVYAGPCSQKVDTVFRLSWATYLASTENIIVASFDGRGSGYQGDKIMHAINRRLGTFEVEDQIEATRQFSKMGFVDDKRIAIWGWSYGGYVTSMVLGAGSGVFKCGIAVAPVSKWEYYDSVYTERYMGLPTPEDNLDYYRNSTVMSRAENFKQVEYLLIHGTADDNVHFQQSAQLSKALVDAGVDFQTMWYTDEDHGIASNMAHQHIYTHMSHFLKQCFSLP

| IC50 of DPP-IV inhibition (estimated from relative potency) [µM] | Binder |
| --- | --- |
| ~120 | APFPEVF |
| ~5 | LPL |
| ~120 | HPIK |
| ~5 | IPI |

biological target: T1, Dipeptidyl peptidase IV (DPP-IV); assay: cell-based or functional assay; remark: another data set of the same source

| RELATIVE POTENCY [%] (DPP-IV inhibition assay, Gly-Pro-p-nitroanilide conversion, on-line LC-BCD-MS) | Binder |
| --- | --- |
| 20 | PQSVLS |
| 34 | GPFP |
| 23 | MPLW |
| 6 | APFPEVF |
| 98 | KVLP |
| 51 | VPYPQ |
| 100 | LPL |
| 9 | APFPE |
| 15 | LPVP |
| 28 | LPVPQ |
| 63 | LPVPQK |
| 20 | YVPEPF |
| 20 | PFP |
| 11 | LPLP |
| 6 | HPIK |
| 37 | PLLQ |
| 55 | VPLGTQ |
| 100 | IPI |
| 9 | GPFPIIV |
| 12 | EMPFPK |
| 26 | LPQYL |
